A short description of this data set: yeast display, Sf9 membrane polyspecificity reagent, FACS + sequencing; frameworks hold sequencing errors. The essentials:
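In a synthetic yeast display library (Saccharomyces cerevisiae BJ5465), nanobody expression was induced with galactose for 36–48 hours. FACS gates were set low and high (top ~1%) using anti-HA fluorescence for expression and streptavidin fluorescence for binding of the Sf9 membrane reagent. Each polyreactivity label is drawn from the gate of origin.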
For the sequence “QVQLVESGGGLVQAGGSLRLSCAASGRTLGANAMGWYRQAPGKEREFVAAISYSDTRTYADSVKGRFTISRDNAKNTVYFQMNSLKPEDTAVYYCAADYYTWYGILYDYWGQGTQVTVSS”, the “polyreactivity (PSR sort gate)” value is on record as “low polyreactivity”.

Turning to “QVQLVESGGGLVQAGGSLRLRCAASGSILPWYAMGWYRHAPGKERELVAVITSDGGTNYADSVKGRFTISRDNSKNTVYLQMNSLKPEDTAVYYCAADRFSQSGFDSWGQGTQVTVSS”, the “polyreactivity (PSR sort gate)” value is listed as “low polyreactivity”.

For “QVQLVESGGGLVQAGGSLRLSCAASALTFQAYTMGWYRQAPGKERELDAAISRNGGRTYYADSVKGRFTISRDNAKNTVYLQMNSLKPEDTAVYYCAAVHFVVSPGRGDDYWGQCTQVTVSS”, the “polyreactivity (PSR sort gate)” value was “high polyreactivity”.

On to “QVQLVESGGGLVQAGGSLRLSCAASGRTFRGYAMGWYRQAPGKERELVAAITSSGGRTYYADSVKGRFTISRDNAKNTVYLQMNSLKPEDTAVYYCAKDYYSPRGYDYWGQGTQVTVSS”, for which the “polyreactivity (PSR sort gate)” value is recorded as “high polyreactivity”.

With “QVQLVESGGGLVQAGGSLRLSCAASGFTFYVYTMGWYRQAPGKERELVASISGGRTYYADSVKGRFTISRDNAKNTVYLQMNSLKPEDTAVYYCAAVPYPSYYDTRYDYWGPGTQVTVSS”, the “polyreactivity (PSR sort gate)” value is listed as “low polyreactivity”.

With “QVQLVESGGGLVQAGGSLRLSCAASGSIFFSNAMGWYRQAPGKERELVAGIRSGGITNYADSVKGRFTISRDNAKNTVYLQMNSLKPEDSAVYYCAKLKDHGRYAYAFDYWGQGTQVTVSS”, the “polyreactivity (PSR sort gate)” value is given as “low polyreactivity”.

For the sequence “QVQHVESGGGLVQAGGSLRLSCAASGRIFVPYTMGWYRQAPGKERELVAAISRSGGSTYYADSVKGRFTISRDNAKNPVYLQMNSLKPEDTAVYYCAARATNVYSKMDYWGQGTQVTVSS”, the “polyreactivity (PSR sort gate)” value is “high polyreactivity”.

Take “QVQLVESGGGLVQAGGSHRLSCAASGLIIGYYDMGWYRQAPGQERELVAAITQSSGSTYYADSVKGRFTISRDNAKNTVYLQMNRLKREDTAVYYCARRKWKFADNYKLDYWGQGTQVTVSS”: the “polyreactivity (PSR sort gate)” value is given as “low polyreactivity”.

In the case of “QVQLVESGGGLVQAGGSLRLSCAASVSTFGDYTMGWYRQAPGKERELVAAITLTGGSTYYADSVKGRFTISRDNAKNTVYLQMNSLKPEDTAVYYCNTDVIRWVGGTWHRYYYWGQGTQVTVSS”, the “polyreactivity (PSR sort gate)” value was “low polyreactivity”.

For “QVQLVESGGGLVQAGGTLRLSCAASGRIFGPYAMGWYRQAPWKERELVAAISFSGSGTYYADSVKGRFTISRDNAKNTVYFQMNSLKAEDTAVYYCAATSRKIVAFDHDYWGQGTQVTVSS”, the “polyreactivity (PSR sort gate)” value was “low polyreactivity”.

Turning to “QVQLVESGGGLVQAGGSLRLSCAASGRISSSYAMGWYRQAPGKEREFVAGITSIGGRTYYADSVKGRFTISRDNAKNTVYLQMNSLKPEDTAVYYCATTSSWRYGYWGQGTQVTVSS”, the “polyreactivity (PSR sort gate)” value is reported as “high polyreactivity”.

In the case of “QVQLVESGGGLVQAGGSLRLSCAASGRTLHSYAMGWYRQAPGKERELVAAISGGASTYADSVKGRFTISRDNAMITVYFQMNSLKPEDTAVYYCAADDDPVPTYEYDVWGQGTQVTVSS”, the “polyreactivity (PSR sort gate)” value is given as “low polyreactivity”.

With “QVQLVESGGGLVQAGGSLRLSCAASGFIFNTMGWYRQARGKERELVARITRGGSTDYADSVKGRFTISRDNAKNTVYLQMNSLKPEDTAFYYCAAAIGHFERFYWGQGTQVTVSS”, the “polyreactivity (PSR sort gate)” value is given as “low polyreactivity”.

For “QVQLVESGGGLVQAGGSLRLSCAASGITFYEYAMGWYRQAPGKERELVATITSGGNTNYADSVKGRFTISRDNAKNTVYLQMNSLKPEDTAVYFCATRPYGYSCNRPYDYWGQGTQVTVSS”, the “polyreactivity (PSR sort gate)” value is recorded as “low polyreactivity”.

Take “QAQLVESGGGLVQAGGSLRLSCAASGRTLAWYALGWYRQAPGKERELVADISSGGSTYYADSVKGRFTISRDNAKHTVYVQMNSLKPEDTAVYYCAARWRSWRYKDDYWGQGTQVTVSS”: the “polyreactivity (PSR sort gate)” value is “high polyreactivity”.

“QVQLVESGAGLVQAGGSLRLSCAASGSTFKRYAMGWYRQAPGKERELVAAITWRGGSTYYADSVKGRFTISRDNAKNTVYLQMNSLKPEDTAVYYSATDYVYRYDYWGQGTQVTVSS”: the “polyreactivity (PSR sort gate)” value is “high polyreactivity”.

As to “QVQLVESGGGLVQAGGSLRLSCAASGIIFSYYPMGRYRQAPGIERELVAAISRSGGNTYYADSVKGRFTISRDNAKNTVYVQMNSLKPEDTAVYYCAVGWYDDYYYGYDYWGQGTQVTVSS”, the “polyreactivity (PSR sort gate)” value was “high polyreactivity”.

Take “QVQLVESGGGLVQAGGSLRLSCAASGFIFWTYAMGWYRQAPGKERELVAAITGGGGTTYYADSVKGRFTISRDTAKNTVYLQMNSLKPEDTAVYYCAAKQYRSRSGGYWGQGTQVTVSS”: the “polyreactivity (PSR sort gate)” value is “high polyreactivity”.

On to “QVQLVESAGGLVQAGGSLRLSCAASAFTFRWYDMGWYRQAPGKERELVAAIDASDGSTYYSDSVKGSFTISRDNPKNTVYLPMNSLKPEDTAVYYCATRLRGGGKGYYYWGQGTQVTVSS”, for which the “polyreactivity (PSR sort gate)” value is on record as “high polyreactivity”.

As for “QVQLVESGGGLVQAGGSLRLSCAASGRTFYPNAMGWSRQAPGKERELVAAINSGGSTYYADSVKGRFTISRDNAKNTVYLQMNSLKPEDTAVYYCNAERRIAYEYWGQGTQVTVSS”, the “polyreactivity (PSR sort gate)” value was “low polyreactivity”.

“QVQLVESGGGLVQAGGSLRLSCAASGIIFVRYAMGWYIQAPGKERELVAAINSRGNTYYADSVKGRFTISRDNAKNSVYLQMNSLKPEDTAVYYCAKYNSWGQGTQVTVSS”: the “polyreactivity (PSR sort gate)” value was “high polyreactivity”.

Regarding “QVQLEESGGGLVQAGGSLRLSCAASGSTFWRYAMGWYRQAPGKERELVAAISWNGGSTYYADSVKGRFTISRDNAKNTDYLQMNSLKPEDTSVFYCNRRYPFYSRYNNDYWGQGTQVTVSS”, the “polyreactivity (PSR sort gate)” value is listed as “high polyreactivity”.

Consider “QVQLVESGGGLVQAGGSLRLSCAASGSIFSYYTIGWYRKAPGKERELVAAISFSGTSTYYADSVKGRFTISRDNDKNTVYLQMNSLKPEDTAVYFCAKRALYYPTYPKYDTYNRYYWGQGTQGTVSS”, for which the “polyreactivity (PSR sort gate)” value is “high polyreactivity”.

Regarding “QVQLQESGDGLLQAVGSLRLSCAASGYISGYYYMGWYRQAPGKERELVAGIDAFGSSTNYADCVKGRFTISRDNGKNTVYLQMNSLKPEDTAVYYCAARPDGDRLFSYWGQGTQVTVSS”, the “polyreactivity (PSR sort gate)” value is recorded as “low polyreactivity”.

Regarding “QVQLVESGGGLVQAGGRLRLSCAASGITYTVYAMGWYRQAPGKERELLAAISSSGSTTYADSVNGRFTISRDNAKNTVYLLMNSLKPEDTAVYDCAAEGYYRFSTAYFRLKYEYWGQGTQVTVSS”, the “polyreactivity (PSR sort gate)” value is given as “low polyreactivity”.

As for “QVQVVESGGGLFQAGGSLRLSCAASGYIFRFNAMGWSRQAPGKERELVAVITSGARTYYADSVKGRFTISRDNAKNTVYFQINSLKPEDTAFYYFNAGARRYLYDYWGQGTQVTVSS”, the “polyreactivity (PSR sort gate)” value is listed as “low polyreactivity”.

As for “QVQLVESGGGLVQAGGSLRLSCAASGIIFRYYVMGWYRQAPGKERELVADITSGGSTYYADSVKGRFTISRDNEKNTVYLQMNSLKPEDTAVYYCAADYQYDWFYYWGQGTQVTVSS”, the “polyreactivity (PSR sort gate)” value was “high polyreactivity”.

Turning to “QVQLVESGGGLVQAGGSLRLSCAASGSIFRYNAMGWYRKAPGKEREFVAIISYSGVRTYYADSVKGRFTISRDNAKNTVYLQMNSLKPEDTAVYYCAADFKQKGHRTRTTYWGQGTKVTVSS”, the “polyreactivity (PSR sort gate)” value is “high polyreactivity”.

“QVQLVESGGRLVQAGGILRLSCAASGLTFADNAMGWYRQAPGKERELVATISYSGGSTYYADSVKGRFTISRDNAKNTVYLQMNSLKPEDTAVYYCATVWETKAYSRIQWYYYWGQGTQVTVSS”: the “polyreactivity (PSR sort gate)” value is given as “low polyreactivity”.

As to “QVQLVESGGGLVQAGGSLRLICAASGSIFLHYGMGWYRQAPGKERELVAAISWRCRSTYYADSVKGRFTISRDNAKNTVYLQMNSLKPEDTAVYYCNAEYAFPLSGSGYWGQGTQVTVSS”, the “polyreactivity (PSR sort gate)” value was “low polyreactivity”.

Take “QVQLVESGGGLVQAGGSLRLSCAASGSISDTYGLGWYRQAPGKERELVASITWSSGSTDYADSVKGRFTISRDNAKNTVYLQMNSLKPEDTAVYYCATYEPFYSFFFRGIYDYWGQGTQVTVSS”: the “polyreactivity (PSR sort gate)” value was “low polyreactivity”.

“QVQLVESGGGLVQAGGSLSISCASSGRNFGANAMGLYRQAPGKERELVAVITGGGGTYYADSVKGRFTISRDNAKNTVYLQMNSLKPEDTAVYYCDWPRYYYTYPSHPMDYWGQGTQVTVSS”: the “polyreactivity (PSR sort gate)” value is “low polyreactivity”.

As for “QVQLVESGGGLVQAGGSRRISCAASGITFKWYAMGWYRQAPGKERELVAAISWSTGSTYYADSVKGRFTISRDNAKNTVYLQMNSLKPEDTAVSDCAADLQLPNLGDSYDYWGQGTQVTVSS”, the “polyreactivity (PSR sort gate)” value is reported as “high polyreactivity”.

For the sequence “QVQLVESGGGLVQAGGSLRLSCAASGRIDLYNDMGWYRQAPGKERELVAAITWRSGSTYYADSVKGRFTFSRDNAKNTFYCQMNSLNPEDTAVYYCAKRGSGYKQDFKSYSGHYWGHGTQVTVSS”, the “polyreactivity (PSR sort gate)” value is “high polyreactivity”.

For the sequence “QVQLLESGGGLVQAGRSLRLSCSASGRTLVYNAMGWYRQAPGKERELVAGITNGGSTNYADSVKGRFTISRDTAKNTVYLQMNSLKPEDTAVYYCAADSRVYPYYFGDFGYWGQGTQVTVSS”, the “polyreactivity (PSR sort gate)” value is “low polyreactivity”.

In the case of “QVQLVESGGGLVQAGGSLRLSCAASGRTFKDYAMGWYRQAPGKERELVAAISWSGGDTYYADSVKGRFTISRDNAKNTVYLQMNRLKPEDTAVYYCNADPSGVFFYSLEFDYWGQGTQVTVSS”, the “polyreactivity (PSR sort gate)” value is reported as “low polyreactivity”.

For “QVQLVESGGGLVQAGGSLRLSCAASGSTFRFYAMGWYRQAPGKERELVAGITGSGDSTYYADSVKGRFTISRDNAKNTVYLQMNSLKPEDTAVYYCNKRVVYRSSQFDYWGQGTQVTVSS”, the “polyreactivity (PSR sort gate)” value is “low polyreactivity”.

Take “QVHLVESGGGLVQAGGSLRLSCAASGSICGHYAMGWYRQAPGKERELVANITLSDGRTYYADSVKGRFTISLDNAKNTVYFQMNSLKPEDTAVYYCAARYYSFSSPFDYWGQGNQVTVSS”: the “polyreactivity (PSR sort gate)” value is listed as “high polyreactivity”.

In the case of “QVQLLESGGGLVQEGGSLRLSCAASGSIFEWYVMGWYRQAPGKERELVDTITSDCSSNYADSVKGRFTISRDNAKNTVYLQMNSLKPEDSAVYYCARDWRWDAWTRRGNDDGYWGQGTQVTVSS”, the “polyreactivity (PSR sort gate)” value is recorded as “low polyreactivity”.

As for “QVQLVESGGGLVQAGGSLRLSCAASGFTFVSYAMGWYRQAPGKERELVAVIDNSDGDTYYADSVKGRFTISRDNAKNTVYLQMNSLKPEDTAVYYCAADAVIEWTDWYSAWWYYYWGQGTQVTVSS”, the “polyreactivity (PSR sort gate)” value is recorded as “low polyreactivity”.

As to “QVQLVESGGGLVHAGGSLRLSCAASGRIFRSYAMGWYRQAPGKERELVAAITSRGGSTYYADYVKGRFTISRDNAKNTVYLQMNILKTEDTAVYYCAADSFRLGVAAWTRYNYWGQGTQVTVSS”, the “polyreactivity (PSR sort gate)” value was “high polyreactivity”.

These data come from the nanobody polyreactivity screen of Harvey et al. (2022).
